According to US20060122105A1, “Method of improing the growth performance of an animal” (priority 2001, published 2006):

Experiments:
Format in all cases: in vivo
[1] = system: Actinobacillus pleuropneumoniae (App); assay: App challenge of pigs, prophylactic low or high doses of IL-1ra or IL-1ra+IL-4 (Table 8); details: for rate of gain: last 10 days of challenge, FIG. 44
Method: Blood was sampled from pigs by venipuncture at −24 h, +0 h, +24 h and +3 weeks from challenge. Blood was assayed for immunological parameters as previously described. Pigs were weighed at day −1, day 10 and at 3 weeks.

[2] = system: Actinobacillus pleuropneumoniae (App); assay: App challenge of pigs, prophylactic recombinant IL-1ra, plasmid IL-1ra or flunix (Example 5); design: improvements in weight gain over saline controls / reduction in weight gain compared to saline controls / reduction in clinical symptoms compared to saline / reduction of pleurisy compared to saline treated controls / reduction in affected lung mass compared to saline treated controls: concentration or dose not given beside the values
Method: Male pigs, with a mean starting weight of 52 kg, were allocated to 5 treatment groups as outlined in Table 6. Pigs were housed in group pens, with each pen containing a replicate from each of the treatment groups. The starting weights of each treatment group and each pen were equal prior to the start of the trial. Pigs were provided with pelleted feed and water ad libitum.
Recombinant IL-1ra and saline-were administered as 1 ml doses, given subcutaneously behind the ear. Plasmids were administered in 1 ml doses, given intramuscularly in the hind-leg. Flunix was administered as a 2 ml dose according to the manufacturer's instructions, and delivered intramuscularly in the neck. The timetable of administration is outlined in Table 6 below.
Prior to challenge, pigs were treated with recombinant cytokines, flunix or plasmids as described Table 7. Pigs were anaesthetised and infected intratracheally with 7.5×10^5 pfu App on day 0.
Blood was sampled from pigs by venipuncture at 0, 24 h and 14 days post-challenge. Blood was assayed for immunological parameters as previously described. Pigs were weighed weekly from delivery of plasmids and for 2 weeks after challenge.
At the conclusion of the trial, pigs were euthanased and the lungs removed for post-mortem examination. Lungs were scored for pleurisy from 0-5 (FIGS. 39 and 40) and the degree of pleuropneumonia was determined by weighing affected lung and expressed as a percentage of total lung weight (FIGS. 41 and 42). Pigs treated with flunix and IL-1ra had less pleurisy than the saline controls (FIG. 39).

[3] = system: Actinobacillus pleuropneumoniae (App); assay: as above; details: day 13 after challenge compared with pre-challenge levels; FIG. 35
[4] = Growth performance of weaner pigs treated with IL-1ra or saline, with or without in-feed antibiotics (Example 1); details: for warm carcass weight: FIG. 6; for rate of gain over the grower phase: D79 and D93, FIG. 3
Method: Recombinant porcine. IL-1ra was expressed in E. coli and purified using a polyhis tag system. IL-1ra was tested for biological activity in a bioassay prior to the start of the experiment.
Male weaner pigs (28 days old) were allocated to treatment groups of 20 as described in Table 1. The mean weight for each treatment group was equal, with equal variance. Pigs were housed in group pens of 20, with 2 pens provided with medicated water and feed as per current industry standards, while 2 pens were given unmedicated water and feed. Pigs were injected twice weekly with recombinant IL-1ra or saline (control), in a volume of 1 ml, for the duration of the weaner phase (42 days), as described in Table 2.
Upon commencement of the weaner phase (day 0) and upon completion of the weaner phase (day 42), pigs were […]

B1: IL-1ra: Recombinant porcine IL-1ra expressed in E. coli and purified using a polyhis tag system (protein, UniProt Q29056 26-177, looked up)
Interleukin-1 receptor …: HPLGKRPCRMQAFRIWDVNQKTFYLRNNQLVAGYLQGPNTKLEEKIDVVPVEPHFVFLGIHGGKLCLSCVKSGDEMKLQLDAVNITDLRKNSEQDKRFTFIRSDSGPTTSFESAACPGWFLCTALEADQPVGLTNTPKAAVKVTKFYFQQDQ
modifications: polyhistidine tag
notes: Recombinant porcine IL-1ra expressed in E. coli and purified using a polyhis tag system
improved growth compared to saline treated controls ([1]; 21 days of App challenge, low and high doses, FIG. 46): 13.5%
amount of lung affected by App lesions ([1]; high dose, FIG. 47): reduced the amount of lung affected by App lesions
production of the pro-inflammatory cytokine IL-8 (mRNA in lung tissue) ([1]; high dose, FIG. 49): greatly reduced
increase in rate of gain vs saline ([1]; high dose, first 10 days of App challenge, FIG. 43): > 100 g/day
degree of pleurisy seen at post-mortem ([1]; high doses, FIG. 48): reduced
production of TNFα (mRNA in lung tissue) ([1]; high doses, FIG. 50): inhibited
rate of gain ([1]; high doses): 1170 g/day
weight gained during the 21-day challenge period ([1]; low and high doses, FIG. 45): 17.9 kg
rate of gain ([1]; low doses): 1250 g/day
improvements in weight gain over saline controls ([2]; 14d App challenge, FIG. 33): 53.8%
daily rate of gain ([2]; 14d challenge with App, FIG. 32): 667 g per day
reduction in clinical symptoms compared to saline ([2]; FIG. 38): 72%
heavier at the termination of the experiment than saline treated peers ([2]; after 2 weeks of challenge): 4 kg
improvement in growth vs saline ([2]; after 2 weeks of challenge): 69%
production of IL-6 (mRNA in peripheral blood) ([2]; after App challenge, compared with saline treated controls, FIG. 36): reduce the production
growth during the week of challenge ([2]; first week after App challenge, FIG. 30): positive growth
clinical signs of App disease (mean clinical scores over 30 visits) ([2]; first week of challenge, vs saline-treated controls, p<0.05, FIG. 37): significantly reduced clinical signs of disease
reduction in affected lung mass compared to saline treated controls ([2]; percentage of lung affected by App lesions, FIG. 42): 73.9%
reduction of pleurisy compared to saline treated controls ([2]; pleurisy score 0-5 at necropsy, FIG. 40): 22%
levels of TNFα protein in the serum [3]: reduced levels of TNFα
rate of gain over weeks 5 and 6 of the weaner phase ([4]; 200 μg IL-1ra twice weekly, both medicated and non-medicated feeding regimes, FIG. 2): outperforming saline treated pigs
rate of gain over the first 4 weeks of the weaner phase ([4]; 200 μg IL-1ra twice weekly, vs saline controls, FIG. 1): performed as well as saline controls
warm carcass weight ([4]; IL-1ra in absence of antibiotics): equal to that obtained by pigs fed antibiotics and treated with saline
warm carcass weight ([4]; IL-1ra in presence of antibiotics): greater than that of their saline-treated counterparts
average weight at slaughter, heavier than pigs treated with saline and provided with in-feed antibiotics ([4]; IL-1ra in weaner phase in absence of in-feed antibiotics, FIG. 5): 0.7 kg
rate of gain over the grower phase ([4]; IL-1ra in weaner phase with medicated diet): highest rate of gain
rate of gain over the grower phase ([4]; IL-1ra in weaner phase without in-feed medication): grow as quickly as pigs treated with saline and provided with in-feed medication
rate of gain over the finisher phase ([4]; IL-1ra in weaner phase without medicated diet, FIG. 4): highest rate of gain of all groups
feed conversion ratio during the finisher phase ([4]; day 93-day 133, treatment during weaner phase, IL-1ra in absence of in-feed antibiotics, FIG. 7): 2.49
